This note sets out measurements from article PMC11951571, “Mechanism of non-coding RNA regulation of DNMT3A”.

Data set [1] concerns the target T1, DNMT3A_FL WT (human, UniProt Q9Y6K1 1-912). The experiment in a line: fluorescence anisotropy; 1 uM protein in complex with 10 nM FAM-H3K4me0 peptide (1-21); 50 uM sinefungin; no anisotropy change; 50 mM KH2PO4/K2HPO4 pH 7.8, 1 mM EDTA, 1 mM DTT, 0.2 mg/ml BSA, 20 mM NaCl, 50 uM sinefungin (printed 'μm'), room temperature, 5 min. In general terms: Polarisation of emitted light reports the rotation of a fluorescent probe.

For data set [2], the target named is T1, DNMT3A_FL WT. The experiment in a line: fluorescence anisotropy; 1 uM protein in complex with 10 nM FAM-H3K4me0 peptide (1-21); 50 uM sinefungin; 50 mM KH2PO4/K2HPO4 pH 7.8, 1 mM EDTA, 1 mM DTT, 0.2 mg/ml BSA, 20 mM NaCl, 50 uM sinefungin (printed 'μm'), room temperature, 5 min.
A further data set concerns the target DNMT3A_CD R771A;DNMT3L (human;human, UniProt Q9Y6K1;Q9UJW3 634-912;1-386, R771A|). The experiment in a line: fluorescence anisotropy; heterotetramer pre-bound to 10 nM FAM-GCbox30; 50 uM sinefungin; 50 mM KH2PO4/K2HPO4 pH 7.8, 1 mM EDTA, 1 mM DTT, 0.2 mg/ml BSA, 20 mM NaCl, 50 uM sinefungin (printed 'μm'), room temperature, 5 min. The note with it: protein: recombinant;recombinant; tags: His (pET28a, nickel column);; chain copies: 2;2; 25 nt.

A further data set addresses DNMT3A_CD R729A (human, UniProt Q9Y6K1 634-912, R729A). Description: fluorescence anisotropy; 1 uM protein pre-bound to 10 nM FAM-GCbox30; 50 uM sinefungin; 50 mM KH2PO4/K2HPO4 pH 7.8, 1 mM EDTA, 1 mM DTT, 0.2 mg/ml BSA, 20 mM NaCl, 50 uM sinefungin (printed 'μm'), room temperature, 5 min. The note with it: protein: recombinant; tags: His (pET28a, nickel column); chain copies: 2; 25 nt.

For a further data set, the target named is DNMT3A_CD R736A (human, UniProt Q9Y6K1 634-912, R736A). Described as above. Conditions: protein: recombinant; tags: His (pET28a, nickel column); chain copies: 4; 25 nt.
Chain of DNMT3A_CD R736A (Q9Y6K1 634-912 R736A): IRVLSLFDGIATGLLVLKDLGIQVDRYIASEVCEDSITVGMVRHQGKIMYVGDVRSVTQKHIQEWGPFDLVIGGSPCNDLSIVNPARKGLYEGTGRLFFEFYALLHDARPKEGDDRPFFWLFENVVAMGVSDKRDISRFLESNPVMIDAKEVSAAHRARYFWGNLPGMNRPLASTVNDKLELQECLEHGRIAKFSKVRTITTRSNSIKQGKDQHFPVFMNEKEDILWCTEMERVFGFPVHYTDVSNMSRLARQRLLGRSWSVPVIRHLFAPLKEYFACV
In the next data set the target is DNMT3A_CD WT (human, UniProt Q9Y6K1 634-912). The experiment in a line: fluorescence anisotropy; 1 uM protein pre-bound to 10 nM FAM-GCbox30; 50 uM sinefungin; anisotropy rises on RNA addition; 50 mM KH2PO4/K2HPO4 pH 7.8, 1 mM EDTA, 1 mM DTT, 0.2 mg/ml BSA, 20 mM NaCl, 50 uM sinefungin (printed 'μm'), room temperature, 5 min. The note with it: protein: recombinant; tags: His (pET28a, nickel column); chain copies: 4; 25 nt.
Chain of DNMT3A_CD WT (Q9Y6K1 634-912): as the sequence (Q9Y6K1 634-912 R736A) above, with A103R counted along it

T1 sequence (Q9Y6K1 whole entry): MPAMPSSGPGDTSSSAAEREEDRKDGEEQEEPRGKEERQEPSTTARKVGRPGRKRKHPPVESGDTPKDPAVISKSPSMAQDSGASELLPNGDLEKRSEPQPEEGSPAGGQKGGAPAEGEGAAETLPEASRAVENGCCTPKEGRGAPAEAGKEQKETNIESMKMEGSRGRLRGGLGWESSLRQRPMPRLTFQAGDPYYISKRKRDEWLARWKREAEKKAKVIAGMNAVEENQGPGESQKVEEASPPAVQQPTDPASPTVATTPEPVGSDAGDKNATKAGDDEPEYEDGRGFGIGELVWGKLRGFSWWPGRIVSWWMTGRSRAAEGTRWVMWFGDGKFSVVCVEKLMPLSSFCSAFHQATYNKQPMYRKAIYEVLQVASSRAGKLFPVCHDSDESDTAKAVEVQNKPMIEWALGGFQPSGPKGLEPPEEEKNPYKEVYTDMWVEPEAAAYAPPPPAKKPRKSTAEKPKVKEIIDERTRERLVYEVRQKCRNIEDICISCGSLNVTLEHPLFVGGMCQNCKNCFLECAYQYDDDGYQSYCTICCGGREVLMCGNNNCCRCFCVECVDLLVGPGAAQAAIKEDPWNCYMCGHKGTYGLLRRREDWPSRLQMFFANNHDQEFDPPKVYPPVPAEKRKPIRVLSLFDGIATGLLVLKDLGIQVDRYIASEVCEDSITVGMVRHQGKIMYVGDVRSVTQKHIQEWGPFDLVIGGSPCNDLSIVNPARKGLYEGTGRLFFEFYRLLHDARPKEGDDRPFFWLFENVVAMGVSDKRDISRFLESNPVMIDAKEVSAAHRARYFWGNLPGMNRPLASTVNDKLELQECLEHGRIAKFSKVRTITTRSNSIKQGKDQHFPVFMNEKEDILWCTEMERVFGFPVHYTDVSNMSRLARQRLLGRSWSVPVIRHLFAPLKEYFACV
Chain of DNMT3A_CD R729A (Q9Y6K1 634-912 R729A): as the sequence (Q9Y6K1 634-912 R736A) above, with R96A, A103R counted along it
Chain of DNMT3A_CD R771A;DNMT3L (Q9Y6K1 634-912 R771A, chain 1 of 2): as the sequence (Q9Y6K1 634-912 R736A) above, with A103R, R138A counted along it
Chain of DNMT3A_CD R771A;DNMT3L (Q9UJW3 whole entry, chain 2 of 2): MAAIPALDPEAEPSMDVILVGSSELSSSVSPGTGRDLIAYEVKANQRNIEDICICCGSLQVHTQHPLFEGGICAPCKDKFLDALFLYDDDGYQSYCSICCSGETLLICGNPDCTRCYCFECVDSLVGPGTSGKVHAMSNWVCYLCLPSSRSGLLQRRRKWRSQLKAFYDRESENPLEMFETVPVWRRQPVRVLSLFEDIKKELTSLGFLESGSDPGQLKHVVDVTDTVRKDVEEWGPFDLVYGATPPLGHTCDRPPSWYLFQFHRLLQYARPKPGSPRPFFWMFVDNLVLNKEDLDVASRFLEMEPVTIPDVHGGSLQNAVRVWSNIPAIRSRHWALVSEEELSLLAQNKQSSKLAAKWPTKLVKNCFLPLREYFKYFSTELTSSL

As for CGACCGCCUACUGAAAGAGGGC (ssRNA) [non-specific RNA], the binding result with DNMT3A_FL WT [1] is listed as “no binding”.
Regarding GGGGACACGCCCUCUGUUCCCUUAU (ssRNA) [Fos-1 ecRNA], the binding result with DNMT3A_FL WT [2], with DNMT3A_CD R771A;DNMT3L, in the data set with DNMT3A_CD R729A, with DNMT3A_CD R736A and with DNMT3A_CD WT was “binds” throughout.
